Source: patent publication US20170342151A1 (Memorial Sloan Kettering, published 2017)
Like-named read-outs stand apart in the source and are kept apart here.

T1: D2.8.11, a peptide epitope for murine 763 (human)
T1 construct: also called antigen D2.8.11; peptide D2.8.11
T1 chain: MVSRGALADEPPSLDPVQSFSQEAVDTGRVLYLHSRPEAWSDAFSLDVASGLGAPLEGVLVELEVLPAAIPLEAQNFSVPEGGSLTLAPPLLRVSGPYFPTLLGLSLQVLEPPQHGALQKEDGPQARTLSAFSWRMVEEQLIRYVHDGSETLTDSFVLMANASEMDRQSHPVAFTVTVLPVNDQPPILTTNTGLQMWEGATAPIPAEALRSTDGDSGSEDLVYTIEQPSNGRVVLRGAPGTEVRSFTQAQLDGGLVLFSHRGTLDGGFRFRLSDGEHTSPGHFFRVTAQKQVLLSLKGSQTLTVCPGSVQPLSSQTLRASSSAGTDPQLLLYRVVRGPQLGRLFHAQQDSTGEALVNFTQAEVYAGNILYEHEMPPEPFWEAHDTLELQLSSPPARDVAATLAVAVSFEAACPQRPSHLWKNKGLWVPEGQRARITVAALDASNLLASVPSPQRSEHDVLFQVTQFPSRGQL

B1: hu763IgG1n H2-L2, humanized 763 H2 and L2 in IgG1 format with variant glycosylation (antibody)
heavy: not shown
light: EIVLTQSPATLSVSPGETVTLSCRASQTIYKNLHWYQQKSGLSPRLLIKYGSDSISGIPARFSGSGSGTDYTLTINSVEPEDEGIYYCLQGYSTPWTFGQGTKLEIKRTVAAPSVFIFPPSDEQLKSGTASVVCLLNNFYPREAKVQWKVDNALQSGNSQESVTEQDSKDSTYSLSSTLTLSKADYEKHKVYACEVTHQGLSSPVTKSFNRGEC
modifications: variant Fc glycosylation from expression in GnT1-deficient CHO cells (78.3% mannose, 20.5% N-acetyl glucosamine, 1.2% glucose; no fucose)
notes: also called hu763-H2L2-IgG1n
B2: hu763IgG1 H2-L2, humanized 763 H2 and L2 in IgG1 format (antibody)
heavy: not shown
light: B1 light
notes: also called parental hu763
B3: hu763-HC-OKT3, humanized 763 IgG1 with huOKT3 scFv on the C-terminus of the heavy chain (bispecific antibody)
heavy: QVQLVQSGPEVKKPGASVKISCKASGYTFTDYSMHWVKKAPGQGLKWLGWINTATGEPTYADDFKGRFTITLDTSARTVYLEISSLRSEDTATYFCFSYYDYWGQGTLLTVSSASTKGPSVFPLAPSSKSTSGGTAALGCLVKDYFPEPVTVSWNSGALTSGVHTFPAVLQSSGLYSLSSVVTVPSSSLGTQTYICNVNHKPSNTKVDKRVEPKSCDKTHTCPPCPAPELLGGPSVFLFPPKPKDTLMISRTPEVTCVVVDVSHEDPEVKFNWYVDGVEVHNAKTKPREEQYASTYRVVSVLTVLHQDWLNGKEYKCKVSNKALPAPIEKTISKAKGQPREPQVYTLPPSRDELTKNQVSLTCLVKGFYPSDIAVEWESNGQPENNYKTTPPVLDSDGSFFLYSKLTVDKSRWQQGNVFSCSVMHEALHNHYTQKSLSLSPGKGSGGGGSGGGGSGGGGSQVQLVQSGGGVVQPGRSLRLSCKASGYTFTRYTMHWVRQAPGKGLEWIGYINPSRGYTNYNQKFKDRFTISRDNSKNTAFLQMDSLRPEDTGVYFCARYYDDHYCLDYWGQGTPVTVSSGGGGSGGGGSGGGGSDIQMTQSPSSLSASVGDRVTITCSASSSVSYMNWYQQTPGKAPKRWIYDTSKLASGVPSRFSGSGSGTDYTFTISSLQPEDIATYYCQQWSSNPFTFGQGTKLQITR
light: B1 light
notes: IgG-scFv format, aglycosylated Fc (N297A); also called hu763-HC-huOKT3; hu763-BsAb
B4: hu763IgG4 H2-L2, humanized 763 H2 and L2 in IgG4 format (antibody)
heavy: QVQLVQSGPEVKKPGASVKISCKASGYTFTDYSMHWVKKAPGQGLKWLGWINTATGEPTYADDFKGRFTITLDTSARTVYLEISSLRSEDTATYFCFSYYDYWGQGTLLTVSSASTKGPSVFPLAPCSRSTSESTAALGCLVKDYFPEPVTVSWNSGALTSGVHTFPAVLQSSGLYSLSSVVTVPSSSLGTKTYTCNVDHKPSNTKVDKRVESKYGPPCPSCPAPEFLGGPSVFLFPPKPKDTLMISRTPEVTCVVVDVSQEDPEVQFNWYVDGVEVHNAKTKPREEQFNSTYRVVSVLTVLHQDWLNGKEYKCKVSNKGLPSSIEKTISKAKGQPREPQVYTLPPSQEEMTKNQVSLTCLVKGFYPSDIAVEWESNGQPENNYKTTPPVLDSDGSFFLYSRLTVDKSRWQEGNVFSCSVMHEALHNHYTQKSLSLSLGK
light: B1 light
B5: ch763IgG1, chimeric 763 HC and LC in IgG1 format (antibody, V domains shown)
VH: QIQLVQSGPELKKPGETVKISCKASGYTFTDYSMHWVKKTPGKGLKWLGWINTATGEPTYADDFKGRFAISLETSARTVYLQINNLRNEDTATYFCFSYYDYWGQGTTLTVSA
VL: DIKLSQSPSILSVTPGETVSLSCRASQTIYKNLHWYQQKSHRSPRLLIKYGSDSISGIPSRFTGSGSGTDYTLNINSVKPEDEGIYYCLQGYSTPWTFGGGTKLEIKR
B6: murine anti-CSPG4 antibody 763.74 (antibody, V domains shown)
VH: QIQLVQSGPELKKPGETVKISCKASGYTFTDYSMHWVKKTPGKGLKWLGWINTATGEPTYADDFKGRFAISLETSARTVYLQINNLRNEDTATYFCFSYYDYWGQGTTLTVS
VL: DIKLSQSPSILSVTPGETVSLSCRASQTIYKNLHWYQQKSHRSPRLLIKYGSDSISGIPSRFTGSGSGTDYTLNINSVKPEDEGIYYCLQGYSTPWTFGGGTKLEIK
notes: also called m763

How the values were obtained:
[1] = biological target: T2, human chondroitin sulfate proteoglycan 4 (CSPG4) on cells (human, UniProt Q6UVK1 30-2322); assay: ELISA on M14 cell-coated plates, HRP goat anti-human secondary
T2 construct: Target on CSPG4-positive M14 cells (FACS, cell ELISA) and in frozen human tissue sections (IHC); also called HMW-MAA; MCSP
Protocol: Hu763-IgG1 was also subjected to five cycles of a freeze and thaw process. […] Antigen binding was expressed as % of MFI of maximum binding at 5 μg. E, ELISA analysis of hu763-IgG1 and hu763-IgG1n on M14 cells coated plates. Binding was detected with HRP conjugated goat anti-human secondary antibody. Hu763-IgG1n was subjected to five cycles of a freeze and thaw process.
An ELISA method using coated M14 as antigen was also used to assay hu763-IgG1 and hu763-IgG1n binding (FIG. 3E). […] Hu763-IgG1n still bound to M14 cells well after subjected to five cycles of freezing and thawing process.

[2] = biological target: T1, D2.8.11, a peptide epitope for murine …; assay: SPR, Biacore T-100, D2.8.11 on CM5 chip, bivalent analyte model
Protocol: (§1) CMS sensor chip (Research grade) and related reagents were purchased from Biacore USA (Piscataway, N.J.). […] The system first run 20× cycles of buffer only to get stable baseline levels. […] Samples (60 μL) were injected over the sensor surface at a flow rate of 30 μL/min over 2 min. Association time was set for one minute; dissociation time was set for from five minutes to 30 minutes. Following completion of the association phase, dissociation was monitored in HBS-E buffer containing 250 mM NaCl at the same flow rate. At the end of each cycle, the surface was regenerated using 50 μL 20 mM NaOH at a flow rate of 50 μL/min over one minute and 100 μL 4M MgCl₂ at a flow rate of 50 μL/min over two minutes.

[3] = biological target: T3, anti-763 idiotype antibody MK2-23; assay: SPR, Biacore T-100, MK2-23 on CM5 chip, monovalent analyte model
T3 construct: Immobilized on the CM5 chip; also called anti-idiotype MK2-23
Protocol: as §1

[4] = biological target: T3, anti-763 idiotype antibody MK2-23; assay: as above; remark: listed apart in the source
Protocol: as §1

[5] = biological target: CD3 antigen (surface plasmon resonance); assay: SPR, Biacore, two state reaction model
[6] = biological target: T1, D2.8.11, a peptide epitope for murine …; assay: SPR, Biacore T-100

T2 sequence (Q6UVK1 30-2322 limits assumed): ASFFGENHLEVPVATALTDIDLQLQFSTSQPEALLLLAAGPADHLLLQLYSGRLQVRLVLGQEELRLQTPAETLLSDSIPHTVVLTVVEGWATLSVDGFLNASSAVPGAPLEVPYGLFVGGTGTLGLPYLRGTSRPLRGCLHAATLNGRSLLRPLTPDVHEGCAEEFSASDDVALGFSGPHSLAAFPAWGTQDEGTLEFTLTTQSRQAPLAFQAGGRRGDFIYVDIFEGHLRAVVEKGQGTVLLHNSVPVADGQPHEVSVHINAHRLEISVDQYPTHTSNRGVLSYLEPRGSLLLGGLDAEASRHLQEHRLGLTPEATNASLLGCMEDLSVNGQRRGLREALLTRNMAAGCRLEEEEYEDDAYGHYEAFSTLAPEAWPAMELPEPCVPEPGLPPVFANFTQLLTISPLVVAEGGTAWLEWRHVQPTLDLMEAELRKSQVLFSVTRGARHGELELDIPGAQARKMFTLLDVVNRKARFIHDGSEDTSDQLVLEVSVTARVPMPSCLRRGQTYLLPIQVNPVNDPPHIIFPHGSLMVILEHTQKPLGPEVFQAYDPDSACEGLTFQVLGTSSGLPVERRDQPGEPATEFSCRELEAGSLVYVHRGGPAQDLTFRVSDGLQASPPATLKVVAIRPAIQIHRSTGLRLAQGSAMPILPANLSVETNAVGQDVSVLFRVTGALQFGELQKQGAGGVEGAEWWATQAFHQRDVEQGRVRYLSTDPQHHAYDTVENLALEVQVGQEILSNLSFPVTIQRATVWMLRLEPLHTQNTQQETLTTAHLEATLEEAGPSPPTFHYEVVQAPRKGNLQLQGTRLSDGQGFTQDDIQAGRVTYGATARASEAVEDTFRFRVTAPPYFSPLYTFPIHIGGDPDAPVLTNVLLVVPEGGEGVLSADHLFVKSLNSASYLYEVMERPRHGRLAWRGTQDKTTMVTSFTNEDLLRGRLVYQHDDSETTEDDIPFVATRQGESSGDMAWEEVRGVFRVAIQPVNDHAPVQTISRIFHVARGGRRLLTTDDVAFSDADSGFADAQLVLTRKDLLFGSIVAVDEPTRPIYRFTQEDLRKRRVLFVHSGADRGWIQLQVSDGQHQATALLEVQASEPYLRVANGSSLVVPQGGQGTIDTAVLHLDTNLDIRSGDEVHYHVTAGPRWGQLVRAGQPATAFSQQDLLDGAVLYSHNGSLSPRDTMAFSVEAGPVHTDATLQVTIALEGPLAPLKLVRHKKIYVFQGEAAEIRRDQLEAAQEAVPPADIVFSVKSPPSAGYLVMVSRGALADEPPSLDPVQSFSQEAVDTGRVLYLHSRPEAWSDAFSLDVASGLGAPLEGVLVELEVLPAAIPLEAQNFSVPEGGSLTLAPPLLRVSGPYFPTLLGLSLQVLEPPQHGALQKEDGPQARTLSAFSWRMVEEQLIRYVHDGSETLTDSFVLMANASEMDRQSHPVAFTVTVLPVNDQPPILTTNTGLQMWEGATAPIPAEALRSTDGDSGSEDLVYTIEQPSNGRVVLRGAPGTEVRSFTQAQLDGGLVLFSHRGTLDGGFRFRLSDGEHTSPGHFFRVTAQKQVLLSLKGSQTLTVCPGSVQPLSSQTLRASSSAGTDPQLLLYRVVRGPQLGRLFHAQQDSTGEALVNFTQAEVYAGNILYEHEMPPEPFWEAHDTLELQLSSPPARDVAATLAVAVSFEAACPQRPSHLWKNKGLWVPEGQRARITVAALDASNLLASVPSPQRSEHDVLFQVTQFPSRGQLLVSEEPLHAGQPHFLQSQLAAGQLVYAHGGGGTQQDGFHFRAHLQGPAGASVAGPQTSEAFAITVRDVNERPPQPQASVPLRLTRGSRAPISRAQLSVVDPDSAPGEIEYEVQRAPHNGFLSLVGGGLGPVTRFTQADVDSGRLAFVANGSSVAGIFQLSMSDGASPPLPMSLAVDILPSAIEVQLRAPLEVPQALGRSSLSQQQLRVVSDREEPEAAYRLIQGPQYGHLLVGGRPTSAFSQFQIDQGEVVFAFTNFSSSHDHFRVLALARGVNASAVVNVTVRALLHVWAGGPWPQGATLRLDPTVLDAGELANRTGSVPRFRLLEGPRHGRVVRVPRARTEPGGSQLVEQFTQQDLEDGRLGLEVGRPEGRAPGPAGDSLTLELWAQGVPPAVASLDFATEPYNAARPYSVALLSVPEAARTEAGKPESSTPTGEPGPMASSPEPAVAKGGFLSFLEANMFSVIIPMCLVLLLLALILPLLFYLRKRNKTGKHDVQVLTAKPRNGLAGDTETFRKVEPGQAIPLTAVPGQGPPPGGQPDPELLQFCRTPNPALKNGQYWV

| Binder | binding result [1] | Kd [2] [nM] | koff [2] [s⁻¹] | kon [2] [M⁻¹ s⁻¹] | Kd [3] [nM] | koff [3] [s⁻¹] | kon [3] [M⁻¹ s⁻¹] | Kd [4] [nM] | koff [4] [s⁻¹] | kon [4] [M⁻¹ s⁻¹] | Kd [5] [nM] | koff [5] [s⁻¹] | kon [5] [M⁻¹ s⁻¹] | Kd [6] [nM] | kon [6] [M⁻¹ s⁻¹] |
| --- | --- | --- | --- | --- | --- | --- | --- | --- | --- | --- | --- | --- | --- | --- | --- |
| B1 | binds | 1.15 | 3.28e-05 | 28500 | 0.449 | 7.54e-05 | 168000 | – | – | – | – | – | – | – | – |
| B2 | – | 1.29 | 3.81e-05 | 29600 | – | – | – | 1.75 | 0.000181 | 103000 | – | – | – | – | – |
| B3 | – | – | – | – | – | – | – | – | – | – | 231 | 0.0696 | 302000 | – | – |
| B4 | – | 1.22 | 3.5e-05 | 28700 | 0.48 | 8.01e-05 | 167000 | – | – | – | – | – | – | – | – |
| B5 | – | 84 | 0.00295 | 35100 | – | – | – | 1.89 | 0.000339 | 179000 | – | – | – | – | – |
| B6 | – | 1.34 | 3.89e-05 | 29000 | 0.582 | 8.5e-05 | 146000 | 2.09 | 0.000163 | 78200 | – | – | – | 1.3 | 29600 |
